Consider 2 substances from paper PMC4690985.

By stoichiometry N is commonly meant the number of molecules, sites or subunits per partner or assembly.

Test [1] deals with TNH αβγ trimer (Streptomyces rimosus) (UniProt B6CWJ3). Nature of the test: native MS.
Test [2] addresses Toyocamycin nitrile hydratase (TNH) α subunit (Streptomyces rimosus) (UniProt B6CWJ3). Nature of the test: native MS.

For the substance “TNH αβγ trimer (from UniProt B6CWJ3 1-195) (complex)”, the stoichiometry N in test [1] stood at 2.

On to “Toyocamycin nitrile hydratase (TNH) β subunit (natural protein)”, for which the abundance of the αβ dimer among the SID products (αβγ trimer = 100%) in test [2] was 32%.
